One test has as its target YFP-FoxO3 H-C. The test is described as follows: co-IP; YFP-FoxO3 constructs transfected into HeLa cells, purified using YFP resin, PP2A-B56 binding determined by Western blotting.
In another test the target is YFP-FoxO3 I-C. The test is described as above.
A further test concerns the target YFP-FoxO3 L-C. The description is as above.
The target of another test is Recombinant B56α (UniProt Q15172). The test is described as follows: ITC; purified full-length recombinant B56α and synthetic ADAM17 peptides.

Broadly, the Kd is the concentration at which binding is half-saturated.

Sequence of PP2A-B56 (endogenous holoenzyme of HeLa cells) (Q15172 whole entry): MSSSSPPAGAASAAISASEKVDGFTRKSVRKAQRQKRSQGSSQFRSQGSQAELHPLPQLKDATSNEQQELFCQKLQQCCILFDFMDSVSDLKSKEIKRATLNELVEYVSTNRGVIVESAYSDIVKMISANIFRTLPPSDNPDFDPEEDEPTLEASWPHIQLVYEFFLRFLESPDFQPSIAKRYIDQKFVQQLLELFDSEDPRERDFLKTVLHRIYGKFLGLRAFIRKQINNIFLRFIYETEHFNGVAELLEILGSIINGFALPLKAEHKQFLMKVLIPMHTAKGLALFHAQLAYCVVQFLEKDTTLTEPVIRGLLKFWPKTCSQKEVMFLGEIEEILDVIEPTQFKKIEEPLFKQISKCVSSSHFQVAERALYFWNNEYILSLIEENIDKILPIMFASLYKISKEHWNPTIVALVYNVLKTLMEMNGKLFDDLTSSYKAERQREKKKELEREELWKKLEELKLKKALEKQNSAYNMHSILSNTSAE
Sequence of PP2A-B56 (endogenous holoenzyme of HeLa cells) (P30153 whole entry): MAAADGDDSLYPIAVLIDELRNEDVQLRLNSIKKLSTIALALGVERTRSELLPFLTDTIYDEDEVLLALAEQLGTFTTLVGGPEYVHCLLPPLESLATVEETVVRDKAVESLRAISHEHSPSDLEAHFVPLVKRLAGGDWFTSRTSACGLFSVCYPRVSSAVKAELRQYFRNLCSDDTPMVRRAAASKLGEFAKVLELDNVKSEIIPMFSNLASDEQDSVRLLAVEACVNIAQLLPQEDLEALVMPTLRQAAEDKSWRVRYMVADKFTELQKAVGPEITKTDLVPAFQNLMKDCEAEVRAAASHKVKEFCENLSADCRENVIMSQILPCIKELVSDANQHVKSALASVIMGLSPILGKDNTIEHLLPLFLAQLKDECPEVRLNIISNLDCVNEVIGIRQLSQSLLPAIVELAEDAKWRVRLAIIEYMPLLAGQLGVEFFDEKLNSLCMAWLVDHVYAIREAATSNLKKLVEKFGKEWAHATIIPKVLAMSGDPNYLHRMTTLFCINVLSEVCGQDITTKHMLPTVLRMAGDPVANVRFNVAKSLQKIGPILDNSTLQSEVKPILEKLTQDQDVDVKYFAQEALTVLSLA
Sequence of PP2A-B56 (endogenous holoenzyme of HeLa cells) (P67775 whole entry): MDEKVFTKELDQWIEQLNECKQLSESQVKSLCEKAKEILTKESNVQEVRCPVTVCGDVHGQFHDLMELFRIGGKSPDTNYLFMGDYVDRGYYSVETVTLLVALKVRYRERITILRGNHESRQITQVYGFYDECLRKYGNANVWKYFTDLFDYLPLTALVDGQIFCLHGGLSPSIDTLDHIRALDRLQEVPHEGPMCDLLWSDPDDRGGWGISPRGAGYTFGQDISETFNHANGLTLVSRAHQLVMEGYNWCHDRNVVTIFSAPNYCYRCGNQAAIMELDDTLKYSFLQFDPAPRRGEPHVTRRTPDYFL

“PP2A-B56 (endogenous holoenzyme of HeLa cells) (from UniProt Q15172 1-486; P30153 1-589; P67775 1-309) (complex)”: the fold PP2A-B56 bound against wt FoxO3 is 10 fold with YFP-FoxO3 H-C, 4 fold in the test with YFP-FoxO3 I-C and 0.5 fold in the test with YFP-FoxO3 L-C.

Regarding “synthetic ADAM17 peptide engineered for optimal binding (LDTIQEEE)”, in the test with Recombinant B56α, the Kd stood at 900 nM.

The values above are taken from publication PMC7327492.
